{"source": "patent US20020110800A1", "about": "“Use of SHP-1 and SHP-2 to detect compounds involved in neuronal survival” (McGill University, priority 1997, published 2002)", "molecules": {"B1": {"name": "BDNF: brain-derived neurotrophic factor, a neurotrophin, obtained from Peprotech (protein, UniProt P23560 19-247, looked up)", "Neurotrophic factor BDNF …": "APMKEANIRGQGGLAYPGVRTHGTLESVNGPKAGSRGLTSLADTFEHVIEELLDEDQKVRPNEENNKDADLYTSRVMLSSQVPLEPPLLFLLEEYKNYLDAANMSMRVRRHSDPARRGELSVCDSISEWVTAADKKTAVDMSGGTVTVLEKVPVSKGQLKQYFYETKCNPMGYTKEGCRGIDKRHWNSQCRTTQSYVRALTMDSKKRIGWRFIRIDTSCVCTLTIKRGR"}}, "tested_on": "SHP-2", "experiment": "BDNF-stimulated association of SHP-2 with tyrosine-phosphorylated proteins in cortical neurons", "format": "cell-based, rat", "text": "FIG. 5 is a Western blot showing that BDNF stimulates the association of SHP-2 with tyrosine phosphorylated proteins in cortical neurons. Lysates prepared from cortical neurons treated with or without BDNF were immunoprecipitated with anti-SHP-2 antibody and probed with anti-pTyr antibody.\nTo determine the mechanism whereby the neutrotrophins stimulate the survival and growth of normal and injured neurons, we have asked whether the phosphoprotein phosphatases SHP-1 and SHP-2 play a role in the differentiation and survival of primary neurons, focusing our studies on cultured rat sympathetic cervical ganglion (SCG) and cortical neurons in order to determine the exact nature of this regulation.\nImmunoprecipitations and immunoblotting were performed as previously described (Kaplan et al., Science, 252:554-558, 1991). […]", "data": [{"molecule": "B1", "values": [{"measurement": "association of tyrosine-phosphorylated proteins with SHP-2", "value": "causes the association of tyrosine-phosphorylated proteins with SHP-2"}]}]}
